Measured values from PMC9896561.

Molecular target: T1, T4 DNA ligase (T4DL) (UniProt P00970 1-487)
T1 sequence: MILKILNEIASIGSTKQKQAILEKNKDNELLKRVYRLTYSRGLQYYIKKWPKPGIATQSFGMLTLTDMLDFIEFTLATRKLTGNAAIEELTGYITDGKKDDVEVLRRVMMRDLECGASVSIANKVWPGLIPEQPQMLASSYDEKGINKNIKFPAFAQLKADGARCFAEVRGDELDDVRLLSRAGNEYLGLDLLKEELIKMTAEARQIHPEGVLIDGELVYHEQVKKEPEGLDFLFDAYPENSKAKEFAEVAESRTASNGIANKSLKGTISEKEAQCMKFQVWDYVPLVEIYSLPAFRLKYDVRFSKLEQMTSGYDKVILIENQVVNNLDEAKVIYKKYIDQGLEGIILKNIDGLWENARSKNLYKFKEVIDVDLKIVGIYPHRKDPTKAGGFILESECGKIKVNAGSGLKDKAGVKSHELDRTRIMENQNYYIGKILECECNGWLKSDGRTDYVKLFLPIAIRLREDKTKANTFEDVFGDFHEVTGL
Assay: fluorescence anisotropy

B1: DAS1M (structured_DNA)
DNA: ATCTCGACTAGTCAGTCTCCCCAGCTAAAAAAAAAAAAAGTTGGGGAAAAAAAAAATCCGAATGTCTCGGAT
modifications: 5' phosphate
With B1 as the binder, how does the Kd read?
The Kd was 1270 ± 300 nM.
